Values belong to the binder of their own block, whether it stands above or below them. Square brackets hold non-standard residues; d marks the D form. * marks the point of attachment. Butanoyl(4-Ph) = O=C(CCCc1ccccc1)*; Butanoyl(4-ethynyl) = C#CCCCC(=O)*
How the values were obtained:
[1] = target: human melanocortin 1 receptor (human) (UniProt Q01726); test: time-resolved lanthanide fluorescence competitive binding vs Eu-labeled NDP-alpha-MSH; 10% ligand loading
[2] = target: human melanocortin 1 receptor (human) (UniProt Q01726); test: time-resolved lanthanide fluorescence competitive binding; reference 1-targeted UXL micelles
[3] = target: human melanocortin 1 receptor (human) (UniProt Q01726); test: competitive binding vs Eu-NDP-alpha-MSH, time-resolved fluorescence, HCT116/hMC1R cells; concentration normalized to the targeting group

Chain of human melanocortin 1 receptor (human) (Q01726 whole entry): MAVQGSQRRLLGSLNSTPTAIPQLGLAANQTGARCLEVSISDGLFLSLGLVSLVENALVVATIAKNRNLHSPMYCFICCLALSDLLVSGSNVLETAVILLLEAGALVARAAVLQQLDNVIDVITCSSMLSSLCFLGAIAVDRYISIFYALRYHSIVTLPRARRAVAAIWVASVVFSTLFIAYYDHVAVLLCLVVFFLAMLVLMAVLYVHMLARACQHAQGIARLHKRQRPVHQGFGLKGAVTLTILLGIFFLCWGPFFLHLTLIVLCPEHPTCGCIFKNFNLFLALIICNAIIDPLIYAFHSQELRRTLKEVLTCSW

Ki [1]: 12 nM
Binder: {Butanoyl(4-Ph)}-H[dF]RWGK(Butanoyl(4-ethynyl))-NH2 (peptide, part only; not given: uncrosslinked triblock polymer, part only, also: uncrosslinked micelle)

Ki [1]: 2.9 nM
fold lower Ki than the corresponding UXL micelles [2]: 4 times
Binder: {Butanoyl(4-Ph)}-H[dF]RWGK(Butanoyl(4-ethynyl))-NH2 (peptide, part only; not given: crosslinked triblock polymer, part only, also: Fe(III)-crosslinked micelle)

Ki [3]: 11.5 nM
B1: 4-targeted triblock polymer micelles (peptide, part only; not given: triblock polymer, part only)
peptide: {Butanoyl(4-Ph)}-H[dF]RWGK(Butanoyl(4-ethynyl))-NH2
modifications: not fully specified; printed as 4-phenylbutyryl-His-DPhe-Arg-Trp-Gly-Lys(hex-5-ynoyl)-NH2; also: Lys hex-5-ynoyl clicked via 1,2,3-triazole to PEG azide of triblock polymer micelle
